Data from patent US20220220214A1 (AB INITIO BIOTHERAPEUTICS, published 2022).

T1: apelin (APJ) receptor on APJ-expressing cells (Homo sapiens (Human), UniProt P35414 1-380)
T1 sequence: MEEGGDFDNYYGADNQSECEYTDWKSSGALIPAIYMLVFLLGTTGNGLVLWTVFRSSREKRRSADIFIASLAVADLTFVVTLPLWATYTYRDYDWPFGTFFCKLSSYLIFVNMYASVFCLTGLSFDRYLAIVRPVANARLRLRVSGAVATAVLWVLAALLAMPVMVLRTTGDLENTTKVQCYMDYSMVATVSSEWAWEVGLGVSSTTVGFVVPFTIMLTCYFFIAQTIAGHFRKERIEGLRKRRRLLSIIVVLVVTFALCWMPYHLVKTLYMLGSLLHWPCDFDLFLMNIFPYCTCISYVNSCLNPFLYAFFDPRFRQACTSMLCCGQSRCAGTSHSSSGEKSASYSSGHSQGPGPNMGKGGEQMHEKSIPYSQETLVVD

T2: mouse APJ receptor expressed on CT26 cells (mouse, UniProt Q9WV08 1-377)
T2 construct: whole, on cells
T2 sequence (looked up): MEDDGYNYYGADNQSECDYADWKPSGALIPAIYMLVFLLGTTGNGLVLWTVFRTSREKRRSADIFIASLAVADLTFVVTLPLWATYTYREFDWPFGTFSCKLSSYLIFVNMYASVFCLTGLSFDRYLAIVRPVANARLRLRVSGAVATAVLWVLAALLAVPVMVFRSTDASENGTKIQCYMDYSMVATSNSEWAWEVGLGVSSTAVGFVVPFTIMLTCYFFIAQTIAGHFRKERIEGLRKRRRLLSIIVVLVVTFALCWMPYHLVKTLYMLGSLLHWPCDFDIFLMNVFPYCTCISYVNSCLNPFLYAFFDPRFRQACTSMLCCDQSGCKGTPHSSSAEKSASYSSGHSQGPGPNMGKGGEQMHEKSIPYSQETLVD


Experiments:
[1] = target: T1, apelin (APJ) receptor on APJ-expressing …; assay: cell-based or functional assay
[2] = target: T1, apelin (APJ) receptor on APJ-expressing …; assay: method not stated (Example 2)
[3] = target: T2, mouse APJ receptor expressed on CT26 …; assay: binding to the surface of CT26 cells

Binder	Fold suppression (saturated), β-arrestin signaling [1] [fold]	Ki [2] [nM]	Kd [2] [nM]	Kd [3] [nM]
VHH-23 (VHH, Nanobody) VHH: QVQLQESGGGLVQAGGSLRLSCAASGNISPFRAMGWYRQAPGKEREFVAAINTGAITNYADSVKGRFTISRDNAKNTVYLQMNSLKPEDTAVYYCAASCRAYASRIDLFSYHTYWGQGTQVTVSS	8.5	39	–	–
VHH-22 (VHH, Nanobody) VHH: QVQLQESGGGLVQAGGSLRLSCAASGNIFRGRVMGWYRQAPGKEREFVAGIDYGASTNYADSVKGRFTISRDNAKNTVYLQMNSLKPEDTAVYYCAARLSERRRLEGYWSAVHVYWGQGTQVTVSS	5.9	–	13	–
VHH-21 (VHH, Nanobody; VHH-21-Fc (aglycosylated human IgG1 Fc) was used in vivo; also called negative allosteric modulator VHH-21) VHH: QVQLQESGGGLVQAGGSLRLSCAASGSISVGYLMGWYRQAPGKERELVAGINYGSNTYYADSVKGRFTISRDNAKNTVYLQMNSLKPEDTAVYYCAASQRRAYAARIDLFSYHTYWGQGTQVTVSS	–	–	–	~100
